Measurements as given in US20160258933A1 (Dana-Farber, published 2016).
Ends that are not written are not given here. * marks the point of attachment. FITC = O=C1OC2(c3ccc(O)cc3Oc3cc(O)ccc32)c2ccc(NC(=S)*)cc21; Ahx = NCCCCCC(=O)O

Columns and labels:
[1] = target: T1, GST-BCL-2 (human, UniProt P10415 1-218, limits assumed); experiment: fluorescence polarization (Table 2b) as retold
T1 construct: Bacterially expressed GST fusion; not shown: GST tag

[2] = target: T1, GST-BCL-2; experiment: fluorescence polarization, FITC peptide with GST-BCL-2
Protocol: (§1) Binding assays were performed using fluorescence polarization as previously described (Letai et al., 2002). A minimum of three independent experiments were used to determine each dissociation constant.
(§2) To determine selectivity in interactions among antiapoptotic BCL-2 family members and BH3 domains of BH3-only proteins, fluorescence polarization binding assays (FPA) were used. Antiapoptotic proteins BCL-2, BCL-XL, MCL-1, BCL-w, and BFL-1 were purified from transfected bacteria as GST fusion proteins. Oligopeptides used for FPA were tagged with an N-terminal FITC moiety.

[3] = target: T2, GST-BCL-w (human, UniProt Q92843 1-164, limits assumed); experiment: fluorescence polarization, FITC peptide with GST-BCL-w
T2 construct: Bacterially expressed GST fusion; not shown: GST tag
T2 sequence (looked up): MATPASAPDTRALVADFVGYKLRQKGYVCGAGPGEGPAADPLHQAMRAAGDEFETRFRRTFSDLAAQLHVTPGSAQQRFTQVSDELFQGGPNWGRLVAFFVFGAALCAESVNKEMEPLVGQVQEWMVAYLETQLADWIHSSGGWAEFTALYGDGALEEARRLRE
Protocol: as §1, §2

[4] = target: T3, GST-BFL-1 (human, UniProt Q16548 1-153, limits assumed); experiment: fluorescence polarization, FITC peptide with GST-BFL-1
T3 construct: Bacterially expressed GST fusion; not shown: GST tag
T3 sequence (looked up): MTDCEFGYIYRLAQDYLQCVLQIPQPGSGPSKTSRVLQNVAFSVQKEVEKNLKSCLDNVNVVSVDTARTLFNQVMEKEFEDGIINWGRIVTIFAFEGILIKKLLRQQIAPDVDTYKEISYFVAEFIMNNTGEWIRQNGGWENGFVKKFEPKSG
Protocol: as §1, §2

[5] = target: T4, GST-BCL-XL (human, UniProt Q07817 1-212, limits assumed); experiment: fluorescence polarization, FITC peptide with GST-BCL-XL
T4 construct: Bacterially expressed GST fusion; not shown: GST tag
T4 sequence (Q07817 1-212 limits assumed): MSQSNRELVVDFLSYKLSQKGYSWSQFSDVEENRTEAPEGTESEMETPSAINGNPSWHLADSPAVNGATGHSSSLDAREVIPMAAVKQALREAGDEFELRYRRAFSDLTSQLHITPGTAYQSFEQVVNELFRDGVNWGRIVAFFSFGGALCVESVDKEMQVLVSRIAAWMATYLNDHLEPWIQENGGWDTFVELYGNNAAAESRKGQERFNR
Protocol: as §1, §2

[6] = target: T5, GST-MCL-1 (human, UniProt Q07820 1-327, limits assumed); experiment: fluorescence polarization displacement of fluorescein BIM BH3 from 0.1 uM GST-MCL-1
T5 construct: not shown: GST tag
T5 sequence (Q07820 1-327 limits assumed): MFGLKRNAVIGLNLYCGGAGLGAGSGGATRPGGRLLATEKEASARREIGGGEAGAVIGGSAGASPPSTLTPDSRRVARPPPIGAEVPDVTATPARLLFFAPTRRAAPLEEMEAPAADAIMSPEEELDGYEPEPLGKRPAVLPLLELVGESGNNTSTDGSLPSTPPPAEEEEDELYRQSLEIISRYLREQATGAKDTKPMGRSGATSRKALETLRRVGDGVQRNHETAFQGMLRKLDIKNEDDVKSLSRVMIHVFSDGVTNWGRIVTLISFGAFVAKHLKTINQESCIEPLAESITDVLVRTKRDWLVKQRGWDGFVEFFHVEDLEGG
Protocol: as §1

[7] = target: T1, GST-BCL-2; experiment: fluorescence polarization displacement of fluorescein BIM BH3 from 0.5 uM GST-BCL-2
Protocol: as §1

T1 sequence (P10415 1-218 limits assumed): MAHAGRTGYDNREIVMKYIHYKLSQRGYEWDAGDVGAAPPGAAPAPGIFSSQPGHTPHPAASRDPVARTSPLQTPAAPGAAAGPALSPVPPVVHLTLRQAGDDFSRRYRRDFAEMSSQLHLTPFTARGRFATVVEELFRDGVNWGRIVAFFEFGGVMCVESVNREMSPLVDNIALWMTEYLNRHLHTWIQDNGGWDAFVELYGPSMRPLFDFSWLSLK

Binder	binding result [2]	binding result [3]	binding result [4]	binding result [5]	other results
{FITC-Ahx}-MEGSDALALRLACIGDEMDV [BIK BH3 peptide, N-terminal fluorescein tagged]					fold lower affinity than BAD BH3 [1]: ~10 fold; fold lower affinity than BAD, PUMA or BMF BH3 [1]: ~10 fold
{FITC-Ahx}-AELPPEFAAQLRKIGDKVYC [NOXA A BH3 peptide, N-terminal fluorescein tagged]	no binding	no binding	no binding	no binding	
{FITC-Ahx}-PADLKDECAQLRRIGDKVNL [NOXA B BH3 peptide, N-terminal fluorescein tagged]	no binding	no binding	no binding	no binding	
LWAAQRYGRELRRMSDEFEGSFKGL (Peptide as titrated in the displacement assay and used on mitochondria and cells) [BAD BH3 peptide (no tag stated)]					binding result [6]: no binding
AELPPEFAAQLRKIGDKVYC (Peptide as titrated in the displacement assay and used on mitochondria and cells) [NOXA A BH3 peptide (no tag stated)]					binding result [7]: no binding
